The term stoichiometry N denotes the number of molecules, sites or subunits per partner or assembly. The term koff denotes the rate constant with which the complex falls apart.

Data on seven substances can be found in PMC4930479.

Experiment [1] deals with VEGF165 (human). In words: SEC-MALS; inhibitor and ligand mixed at molar ratios 5:1 to 1:5 (20 µM and 100 µM), 12 h at ambient temperature; free proteins injected separately; Superose 12 10/300 GL, 10 mM phosphate, 500 mM NaCl, pH 7.0, 0.3 mL/min. On the technique in general: In gel filtration, larger molecules generally elute earlier.
Experiment [2] concerns the target FcγRIIIa (176V) (human) (UniProt P08637). Description: SPR; His-tagged or myc-myc His-tagged Fcγ receptors captured (about 200 RU) on anti-histidine antibody on a CM4 or CM5 chip; inhibitor with or without equimolar VEGF165 or VEGF121 injected (1 µM in Table 1); Biacore 3000, 25 °C, HBS-T pH 7.4; only kd and t1/2 calculated.
The target of experiment [3] is FcγRI (human) (UniProt P12314). The description is as above.
For experiment [4], the target named is FcγRIIIb (human) (UniProt O75015). The experiment is described as above.
Experiment [5] addresses FcγRIIIa (176F) (human) (UniProt P08637). The experiment is described as above.
Experiment [6] addresses T1, PlGF-2 (UniProt P49763).
T1 sequence: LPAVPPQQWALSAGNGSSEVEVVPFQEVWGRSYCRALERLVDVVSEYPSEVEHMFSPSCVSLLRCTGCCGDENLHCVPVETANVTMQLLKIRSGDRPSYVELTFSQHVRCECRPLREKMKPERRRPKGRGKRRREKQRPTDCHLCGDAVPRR
Description: SEC-MALS; inhibitor and ligand mixed at molar ratios 5:1 to 1:5 (20 µM and 100 µM), 12 h at ambient temperature; free proteins injected separately; Superose 12 10/300 GL, 10 mM phosphate, 500 mM NaCl, pH 7.0, 0.3 mL/min.

In experiment [7] the target is FcγRIIa (131R allele) (human) (UniProt P12318). Description: SPR; His-tagged or myc-myc His-tagged Fcγ receptors captured (about 200 RU) on anti-histidine antibody on a CM4 or CM5 chip; inhibitor with or without equimolar VEGF165 or VEGF121 injected (1 µM in Table 1); Biacore 3000, 25 °C, HBS-T pH 7.4; only kd and t1/2 calculated.
Experiment [8] deals with FcγRIIb (human) (UniProt P31994). Described as above.
FcγRIIb (human), sequence (P31994 43-217): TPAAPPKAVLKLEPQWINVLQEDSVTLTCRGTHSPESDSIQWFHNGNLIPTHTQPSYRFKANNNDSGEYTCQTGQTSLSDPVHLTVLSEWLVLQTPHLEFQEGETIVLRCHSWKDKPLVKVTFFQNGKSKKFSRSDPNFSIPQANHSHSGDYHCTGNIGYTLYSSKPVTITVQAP

FcγRIIIa (176F) (human), sequence (P08637 17-254): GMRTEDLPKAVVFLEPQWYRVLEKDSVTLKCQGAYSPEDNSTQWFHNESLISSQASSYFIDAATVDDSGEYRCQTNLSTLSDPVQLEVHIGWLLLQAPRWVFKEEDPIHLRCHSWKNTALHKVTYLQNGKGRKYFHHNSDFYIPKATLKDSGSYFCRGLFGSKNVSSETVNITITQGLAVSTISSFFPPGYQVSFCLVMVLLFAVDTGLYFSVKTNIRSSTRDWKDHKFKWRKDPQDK
FcγRI (human), sequence (P12314 16-292): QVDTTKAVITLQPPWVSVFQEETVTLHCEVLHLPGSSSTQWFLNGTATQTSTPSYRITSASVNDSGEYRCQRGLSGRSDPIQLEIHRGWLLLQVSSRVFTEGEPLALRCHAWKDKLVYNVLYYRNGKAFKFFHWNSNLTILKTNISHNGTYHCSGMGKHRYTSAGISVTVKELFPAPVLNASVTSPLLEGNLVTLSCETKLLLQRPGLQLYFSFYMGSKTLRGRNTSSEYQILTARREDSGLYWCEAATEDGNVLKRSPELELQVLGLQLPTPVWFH
FcγRIIIa (176V) (human), sequence (P08637 17-254 F176V): as the sequence (P08637 17-254) above, with F160V counted along it
aflibercept (Fc fusion), sequence (chain): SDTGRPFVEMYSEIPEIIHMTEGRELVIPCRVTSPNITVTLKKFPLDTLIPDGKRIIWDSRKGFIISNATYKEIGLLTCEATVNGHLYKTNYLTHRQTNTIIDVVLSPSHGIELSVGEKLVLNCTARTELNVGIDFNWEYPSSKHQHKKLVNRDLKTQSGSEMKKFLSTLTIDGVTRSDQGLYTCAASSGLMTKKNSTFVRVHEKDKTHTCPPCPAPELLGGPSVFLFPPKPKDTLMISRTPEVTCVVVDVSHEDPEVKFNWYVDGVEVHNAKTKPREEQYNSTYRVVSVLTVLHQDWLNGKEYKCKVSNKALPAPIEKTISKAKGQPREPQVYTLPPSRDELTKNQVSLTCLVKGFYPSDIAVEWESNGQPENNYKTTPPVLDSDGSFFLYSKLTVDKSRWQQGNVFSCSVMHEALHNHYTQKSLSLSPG
FcγRIIIb (human), sequence (O75015 17-200): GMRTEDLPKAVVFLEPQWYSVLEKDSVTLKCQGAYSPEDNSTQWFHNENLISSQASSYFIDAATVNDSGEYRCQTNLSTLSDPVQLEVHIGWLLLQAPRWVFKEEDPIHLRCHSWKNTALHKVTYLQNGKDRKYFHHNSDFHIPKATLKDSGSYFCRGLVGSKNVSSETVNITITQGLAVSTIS

As for VEGF165 (ligand), the stoichiometry N in experiment [1] was found to be 2.
Turning to aflibercept (Fc fusion), the t1/2 in experiment [2] was 1.52 min; in experiment [3] it was 16 min; in experiment [4], 0.0667 min; in experiment [5] it was 0.233 min. In addition, the stoichiometry N (aflibercept per VEGF165 dimer) in experiment [1] stood at 1. Besides, in experiment [6], the stoichiometry N (aflibercept per PlGF-2 dimer) was found to be 1.
Regarding aflibercept:VEGF121 complex, the t1/2 in experiment [2] is 2.02 min; in experiment [3], 16.9 min; in experiment [4] it was 0.0833 min; in experiment [7], 0.0667 min; in experiment [5], 0.317 min.
In the case of aflibercept:VEGF165 complex, the koff in experiment [2] is 0.00614 s⁻¹; in experiment [3] it was 0.000617 s⁻¹; in experiment [8] it was 0.174 s⁻¹; in experiment [4], 0.164 s⁻¹; in experiment [7] it was 0.205 s⁻¹; in experiment [5], 0.0392 s⁻¹. Further, the t1/2 in experiment [2] is 1.88 min; in experiment [3], 18.7 min; in experiment [8] it was 0.0667 min; in experiment [4] it was 0.0667 min; in experiment [7] it was 0.05 min; in experiment [5], 0.3 min.
bevacizumab (antibody): the koff is 0.00803 s⁻¹ in experiment [2]; 0.000749 s⁻¹ in experiment [3]; 0.179 s⁻¹ in experiment [8]; 0.196 s⁻¹ in experiment [4]; 0.111 s⁻¹ in experiment [7]; 0.0626 s⁻¹ in experiment [5]. For the same substance, the t1/2 was 1.43 min in experiment [2]; 15.4 min in experiment [3]; 0.0667 min in experiment [8]; 0.0667 min in experiment [4]; 0.1 min in experiment [7]; 0.183 min in experiment [5].
bevacizumab:VEGF121 complex: the t1/2 was 57 min in experiment [3], 6.33 min in experiment [8] and 4.42 min in experiment [4].
Consider bevacizumab:VEGF165 complex, for which the t1/2 is 47.9 min in experiment [3], 11.8 min in experiment [8] and 7.72 min in experiment [4].
